Three substances from patent US20200024330A1 can be followed below.

Holding throughout (test): cell-based or functional assay
In test [1] the target is HIV-1 Env of isolate MGRM-Chronic-B-002 (HIV-1).
Test [2] has as its target HIV-1 Env of isolate MGRM-D-001 (subtype D), on pseudovirus (HIV-1).
In test [3] the target is HIV-1 Env of isolate CAAN.A2 (HIV-1).
Test [4] deals with HIV-1 Env of isolate 92RW009 (clade A), on pseudovirus (HIV-1).
Test [5] has as its target HIV-1 Env of isolate 92UG037 (pseudovirus) (HIV-1).
For test [6], the target named is HIV-1 Env of isolate MGRM-D-008 (subtype D), on pseudovirus (HIV-1).
Test [7] concerns the target HIV-1 Env of isolate APV_6 (HIV-1).
Test [8] concerns the target HIV-1 Env of isolate 6535.3 (HIV-1).
In test [9] the target is HIV-1 Env of isolate 92WR021 (pseudovirus) (HIV-1).
Test [10] addresses HIV-1 Env of isolate MG RM-A-006 (pseudovirus) (HIV-1).
Test [11] concerns the target HIV-1 Env of isolate MGRM-D-004 (subtype D), on pseudovirus (HIV-1).
Test [12] concerns the target HIV-1 92RW020 envelope glycoprotein (Env) on pseudovirus (HIV-1).
Test [13] concerns the target HIV-1 Env of isolate MGRM-AE-006 (pseudovirus) (HIV-1).
The target of test [14] is HIV-1 Env of isolate 92WR024 (pseudovirus) (HIV-1).
Test [15] concerns the target HIV-1 Env of isolate 92WR026 (pseudovirus) (HIV-1).
Test [16] has as its target HIV-1 Env of isolate 93WR029 (pseudovirus) (HIV-1).
Test [17] has as its target HIV-1 Env of isolate APV_13 (HIV-1).
In test [18] the target is HIV-1 Env of isolate MGRM-AE-005 (pseudovirus) (HIV-1).
Test [19] addresses HIV-1 Env of isolate APV_17 (HIV-1).
Test [20] has as its target HIV-1 Env of isolate MGRM-D-005 (subtype D), on pseudovirus (HIV-1).
Test [21] addresses HIV-1 Env of isolate 93UG077 (pseudovirus) (HIV-1).
In test [22] the target is HIV-1 Env of isolate MG RM-A-010 (pseudovirus) (HIV-1).
Test [23] has as its target HIV-1 Env of isolate MG RM-A-013 (pseudovirus) (HIV-1).
Test [24] has as its target HIV-1 Env of isolate 92UG114 (subtype D), on pseudovirus (HIV-1).
Test [25] concerns the target HIV-1 Env of isolate 92UG024 (subtype D), on pseudovirus (HIV-1).
Test [26] has as its target HIV-1 Env of isolate MG RM-A-008 (pseudovirus) (HIV-1).
The target in test [27] is HIV-1 Env of isolate MGRM-AE-002 (pseudovirus) (HIV-1).
Test [28] concerns the target HIV-1 Env of isolate MG RM-A-005 (pseudovirus) (HIV-1).
Test [29] deals with HIV-1 Env of isolate MG RM-A-012 (pseudovirus) (HIV-1).
Test [30] has as its target HIV-1 Env of isolate MGRM-D-002 (subtype D), on pseudovirus (HIV-1).
For test [31], the target named is HIV-1 Env of isolate MG RM-A-014 (pseudovirus) (HIV-1).
For test [32], the target named is HIV-1 92BR020 envelope glycoprotein (Env) on pseudovirus (HIV-1).
The target of test [33] is HIV-1 Env of isolate MG RM-A-009 (pseudovirus) (HIV-1).
The target in test [34] is HIV-1 Env of isolate 98CN006 (subtype CRF08 BC), on pseudovirus (HIV-1).
Test [35] addresses HIV-1 Env of isolate MGRM-AE-004 (pseudovirus) (HIV-1).
Test [36] deals with HIV-1 Env of isolate JRFL (HIV-1).
Test [37] has as its target HIV-1 Env of isolate 92UG031 (pseudovirus) (HIV-1).
Test [38] addresses HIV-1 Env of isolate MGRM-Chronic-B-003 (HIV-1).
The target in test [39] is HIV-1 Env of isolate MGRM-Chronic-B-008 (HIV-1).
Test [40] deals with HIV-1 Env of isolate 92UG046 (subtype D), on pseudovirus (HIV-1).
Test [41] concerns the target HIV-1 Env of isolate MGRM-AE-003 (pseudovirus) (HIV-1).
Test [42] concerns the target HIV-1 Env of isolate 92UG001 (subtype D), on pseudovirus (HIV-1).
Test [43] deals with HIV-1 Env of isolate 92RW008 (clade A), on pseudovirus (HIV-1).
For test [44], the target named is HIV-1 Env of isolate 92BR020 (HIV-1).
Test [45] has as its target HIV-1 Env of isolate VLGCA1 (pseudovirus) (HIV-1).
Test [46] concerns the target HIV-1 Env of isolate 93TH305 (HIV-1).
In test [47] the target is HIV-1 Env of isolate 92WR020 (pseudovirus) (HIV-1).
The target of test [48] is HIV-1 Env of isolate MGRM-D-003 (subtype D), on pseudovirus (HIV-1).
In test [49] the target is HIV-1 Env of isolate 94UG103 (pseudovirus) (HIV-1).
The target of test [50] is HIV-1 Env of isolate 92TH021 (pseudovirus) (HIV-1).
Test [51] addresses HIV-1 Env of isolate MGRM-AE-001 (pseudovirus) (HIV-1).
For test [52], the target named is HIV-1 Env of isolate 98CN009 (subtype CRF07_BC), on pseudovirus (HIV-1).
The target of test [53] is HIV-1 Env of isolate MGRM-Chronic-B-001 (HIV-1).
Test [54] concerns the target HIV-1 Env of isolate MG RM-A-011 (pseudovirus) (HIV-1).
Test [55] has as its target HIV-1 Env of isolate 94 KE 105 (pseudovirus) (HIV-1).
Test [56] has as its target HIV-1 Env of isolate MG RM-A-007 (pseudovirus) (HIV-1).
Test [57] deals with HIV-1 Env of isolate CMU02 (pseudovirus) (HIV-1).
Test [58] deals with HIV-1 Env of isolate MGRM-Chronic-B-004 (HIV-1).
Test [59] has as its target HIV-1 Env of isolate 92UG005 (subtype D), on pseudovirus (HIV-1).
The target in test [60] is HIV-1 92UG024 envelope glycoprotein (Env) on pseudovirus (HIV-1).
Test [61] concerns the target HIV-1 CMU02 envelope glycoprotein (Env) on pseudovirus (HIV-1).
Test [62] addresses aMLV envelope protein on pseudovirus (negative control virus).
The target of test [63] is HIV-1 92TH021 envelope glycoprotein (Env) on pseudovirus (HIV-1).
The target of test [64] is HIV-1 92UG005 envelope glycoprotein (Env) on pseudovirus (HIV-1).
The target in test [65] is HIV-1 MGRM-D-018 envelope glycoprotein (Env) on pseudovirus (HIV-1).
In test [66] the target is HIV-1 MGRM-D-001 envelope glycoprotein (Env) on pseudovirus (HIV-1).
Test [67] addresses HIV-1 MGRM-AG-005 envelope glycoprotein (Env) on pseudovirus (HIV-1).

Chain of 4995_E20 (PGT-142) (antibody) (VH): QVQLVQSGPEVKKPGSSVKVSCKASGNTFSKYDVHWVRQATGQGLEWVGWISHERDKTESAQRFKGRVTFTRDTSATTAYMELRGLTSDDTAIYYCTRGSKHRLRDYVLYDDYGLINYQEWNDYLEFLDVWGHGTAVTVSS
Chain of 4995_E20 (PGT-142) (antibody) (VL): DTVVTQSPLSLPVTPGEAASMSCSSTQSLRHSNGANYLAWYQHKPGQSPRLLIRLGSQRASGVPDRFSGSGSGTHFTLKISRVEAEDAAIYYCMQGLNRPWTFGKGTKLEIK

In general, IC50 refers to the concentration at which inhibition is half-maximal. Read a high IC50 as a need for much substance. For 4995_E20 (PGT-142) (antibody), the IC50 was over 50 µg/mL in test [1]; over 50 µg/mL in [3]; 4.72 µg/mL in test [7]; over 50 µg/mL in test [8]; over 50 µg/mL in [17]; 0.628 µg/mL in test [19]. Also, the IC50 in [36] was over 50 µg/mL; in [38], 0.484 µg/mL; in test [39], over 50 µg/mL; in [44], 15.1 µg/mL; in [46] it was 5.86 µg/mL; in [53], over 50 µg/mL. Further, the IC50 in [58] amounted to 0.172 µg/mL. The IC50, pseudovirus neutralization in test [2] is over 50 µg/mL; in test [6], 0.174 µg/mL; in test [11], over 50 µg/mL; in test [20] it was 1.15 µg/mL; in [24], over 50 µg/mL; in test [25], over 50 µg/mL. The IC50, pseudovirus neutralization in test [30] is over 50 µg/mL; in test [34], over 50 µg/mL; in test [40], over 50 µg/mL; in test [42], over 50 µg/mL; in test [48], over 50 µg/mL; in test [52] it was 4 µg/mL. In addition, the IC50, pseudovirus neutralization in test [59] was over 50 µg/mL. The values for the IC50, single-round pseudovirus neutralization in test [4] and in test [43] were 0.006 µg/mL and 0.447 µg/mL, respectively. The IC50 (µg/mL), pseudovirus neutralization in test [5] is 0.557 µg/mL; in test [9], over 50 µg/mL; in [10] it was over 50 µg/mL; in test [13], over 50 µg/mL; in test [14], 0.069 µg/mL; in test [15] it was 1.78 µg/mL. The IC50 (µg/mL), pseudovirus neutralization in test [16] was 0.014 µg/mL; in [18] it was over 50 µg/mL; in test [21], over 50 µg/mL; in test [22], 0.015 µg/mL; in [23], 3.77 µg/mL; in [26] it was over 50 µg/mL. The IC50 (µg/mL), pseudovirus neutralization was over 50 µg/mL in [27]; 9.7 µg/mL in [28]; over 50 µg/mL in [29]; 0.367 µg/mL in test [31]; 0.058 µg/mL in [33]; 0.001 µg/mL in test [35]. For the same substance, the IC50 (µg/mL), pseudovirus neutralization in test [37] is 0.05 µg/mL; in test [41] it was over 50 µg/mL; in test [45], 2.75 µg/mL; in test [47] it was 31.5 µg/mL; in test [49] it was over 50 µg/mL; in test [50] it was 0.002 µg/mL. Further, the IC50 (µg/mL), pseudovirus neutralization in test [51] is over 50 µg/mL; in [54], over 50 µg/mL; in [55], 0.19 µg/mL; in test [56], over 50 µg/mL; in test [57], over 50 µg/mL. Moreover, the IC50 (ug/ml), neutralizing activity in test [12] and in test [32] was over 10 µg/mL in each case.
Take PGT-121 monoclonal antibody: the IC50, pseudovirus neutralization in test [60], in [61], in test [62], in test [63] and in test [64] was over 10 µg/mL in each case.
For PGT-122 monoclonal antibody, the IC50, pseudovirus neutralization in test [60] was over 10 µg/mL; in test [61] it was over 10 µg/mL; in test [65], 0.0115 µg/mL; in test [66], 0.867 µg/mL; in test [62], over 10 µg/mL; in [63], over 10 µg/mL. Further, the IC50, pseudovirus neutralization in test [64] and in test [67] was over 10 µg/mL throughout.
